Source: patent publication US20180162911A1, “POLYPEPTIDES FOR THE DIAGNOSIS AND THE TREATMENT OF C3 NEF ASSOCIATED C3 GLOMERULOPATHY” (INSERM (INSTITUT NATIONAL DE LA SANTÉ ET DE LA RECHERCHE …, priority 2015, published 2018)
Where no end group is shown, it is not given here.

What was measured:
[1] = target: C3bBbP Properdin-stabilized alternative pathway C3 convertase (UniProt P01024); assay: SPR (ProteOn XPR36), C3b on GLC chip, convertase formed with FB, FD and FP, control IgG injected
[2] = target: C3bBb alternative pathway C3 convertase (UniProt P01024); assay: SPR (ProteOn XPR36), C3b on GLC chip, convertase formed with FB and FD, control IgG injected
Sequence of C3bBb alternative pathway C3 convertase (P01024 23-667 limits assumed, form in doubt, chain 1 of 3): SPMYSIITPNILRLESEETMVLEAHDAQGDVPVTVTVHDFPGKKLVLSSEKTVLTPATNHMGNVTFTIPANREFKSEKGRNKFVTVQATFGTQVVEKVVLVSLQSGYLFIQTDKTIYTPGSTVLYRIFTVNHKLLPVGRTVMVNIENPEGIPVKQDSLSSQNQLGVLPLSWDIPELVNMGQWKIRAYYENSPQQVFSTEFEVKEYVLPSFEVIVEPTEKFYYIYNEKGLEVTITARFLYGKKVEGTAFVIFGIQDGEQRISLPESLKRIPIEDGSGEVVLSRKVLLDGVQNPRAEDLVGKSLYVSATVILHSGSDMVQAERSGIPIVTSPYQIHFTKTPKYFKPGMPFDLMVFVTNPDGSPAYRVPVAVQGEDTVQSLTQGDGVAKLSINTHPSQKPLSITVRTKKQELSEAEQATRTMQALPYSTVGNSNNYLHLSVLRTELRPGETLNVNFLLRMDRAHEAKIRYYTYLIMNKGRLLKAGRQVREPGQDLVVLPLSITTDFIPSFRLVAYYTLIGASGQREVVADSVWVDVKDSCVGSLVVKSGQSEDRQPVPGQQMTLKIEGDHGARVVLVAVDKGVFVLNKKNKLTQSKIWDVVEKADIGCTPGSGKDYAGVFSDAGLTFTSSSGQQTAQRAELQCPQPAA
Sequence of C3bBb alternative pathway C3 convertase (P01024 749-1663 limits assumed, form in doubt, chain 2 of 3): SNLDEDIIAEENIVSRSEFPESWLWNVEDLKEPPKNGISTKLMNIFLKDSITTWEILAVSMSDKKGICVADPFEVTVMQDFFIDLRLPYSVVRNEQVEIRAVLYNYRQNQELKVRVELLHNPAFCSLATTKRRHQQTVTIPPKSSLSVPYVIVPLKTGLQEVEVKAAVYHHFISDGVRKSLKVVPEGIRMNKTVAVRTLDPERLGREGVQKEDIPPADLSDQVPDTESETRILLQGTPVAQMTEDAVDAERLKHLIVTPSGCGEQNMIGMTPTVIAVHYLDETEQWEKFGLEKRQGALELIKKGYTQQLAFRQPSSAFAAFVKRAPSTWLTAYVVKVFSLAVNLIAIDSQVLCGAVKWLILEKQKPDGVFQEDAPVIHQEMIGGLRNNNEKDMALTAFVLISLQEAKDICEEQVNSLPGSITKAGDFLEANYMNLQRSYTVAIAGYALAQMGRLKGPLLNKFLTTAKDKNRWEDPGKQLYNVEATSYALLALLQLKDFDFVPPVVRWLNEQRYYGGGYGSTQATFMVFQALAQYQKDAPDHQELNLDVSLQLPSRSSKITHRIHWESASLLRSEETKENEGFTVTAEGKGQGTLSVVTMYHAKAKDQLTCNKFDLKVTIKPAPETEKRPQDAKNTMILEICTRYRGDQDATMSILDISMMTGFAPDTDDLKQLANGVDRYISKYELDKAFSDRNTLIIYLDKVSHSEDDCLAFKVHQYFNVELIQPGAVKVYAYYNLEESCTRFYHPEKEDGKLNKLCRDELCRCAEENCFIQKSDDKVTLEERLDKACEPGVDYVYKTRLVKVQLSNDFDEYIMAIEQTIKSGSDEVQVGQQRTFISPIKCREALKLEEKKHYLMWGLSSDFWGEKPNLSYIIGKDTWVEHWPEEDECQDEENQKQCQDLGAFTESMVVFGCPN
Sequence of C3bBb alternative pathway C3 convertase (P00751 260-764 limits assumed, form in doubt, chain 3 of 3, further chain): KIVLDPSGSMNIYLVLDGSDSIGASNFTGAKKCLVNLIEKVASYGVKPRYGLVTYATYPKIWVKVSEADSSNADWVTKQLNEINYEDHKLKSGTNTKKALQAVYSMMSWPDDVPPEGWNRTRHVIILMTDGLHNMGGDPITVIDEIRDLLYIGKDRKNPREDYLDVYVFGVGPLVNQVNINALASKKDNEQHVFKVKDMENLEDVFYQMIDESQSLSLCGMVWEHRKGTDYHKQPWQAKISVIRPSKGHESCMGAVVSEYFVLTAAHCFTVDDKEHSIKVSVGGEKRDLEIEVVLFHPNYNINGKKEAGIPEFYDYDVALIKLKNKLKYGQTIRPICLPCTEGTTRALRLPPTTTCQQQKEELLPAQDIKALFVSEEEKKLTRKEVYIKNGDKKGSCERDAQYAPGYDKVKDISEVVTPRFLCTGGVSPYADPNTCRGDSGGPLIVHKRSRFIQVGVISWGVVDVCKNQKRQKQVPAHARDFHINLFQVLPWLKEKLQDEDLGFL

[3] = test system: C3NeF (patient IgG); assay: Peptide inhibition assay with patients' IgG: reduction of C3NeF stabilization of the C3bBb convertase; assay type: biochemical, human; details: for decrease of % stabilization of P1 IgG: 100 μg IgG from P1 (stabilizes only C3bBb) taken as 100%, peptides pre-incubated overnight, n=3 experiments
Procedure: (§1) The ability of patient' IgG to stabilize a pre-formed membrane bound C3bBb was measured with EAC3bBb generated by the incubation of EC3b with appropriate concentration of FB and FD. Briefly, IgG was partially purified from plasma by chromatography on DEAE-cellulose and subsequently quantified by nephelometry. DEAE eluate contains IgG, and also low levels of contaminants such as Properdin and Factor H. Sheep erythrocytes EAC34b were incubated in presence of FB (Complement Technology) and FD (Sigma) to form the alternative convertase C3bBb. The convertase was allowed to decay in EDTA-containing buffer in presence of 400 μg of patient' IgG. Lysis was developed by the addition of rat serum. C3NeF stabilization was measured as the percentage of the residual convertase compared to the reference control without decay. The cut-off for positive C3NeF was determined as the mean+2 sd of the C3NeF stabilization of IgG from 30 healthy individuals.
The test was performed as described earlier, but 80 μg of peptides was utilized and the incubation of IgG and peptides was made at 4° C. overnight. IgG amount was determined depending on their stabilization capacity, in order to obtain 50% of residual convertase after the decay.
Membrane-bound convertase was formed as in the C3bBb assay. During the convertase decay step, cells were incubated with a fixed dose of Peptides (80 μg) and patient' IgG (amount determined by the concentration of IgG leading to 50% of residual convertase). The concentration of IgG applied in the test was chosen depending on their C3NeF activity.

[4] = target: T1, Properdin (Homo sapiens, UniProt P27918); assay: Peptide inhibition assay: inhibition of the stabilization of the C3 convertase mediated by Properdin (haemolytic, membrane-bound C3bBb); assay type: biochemical; details: for dose dependence of inhibition of Properdin stabilization: different doses of peptides; for % inhibition of the Properdin stabilization capacity: 50 ng Properdin pre-incubated with 10 μg peptide 2 h at room temperature, n=2 experiments
T1 construct: purchased Calbiochem
T1 sequence (P27918 28-469): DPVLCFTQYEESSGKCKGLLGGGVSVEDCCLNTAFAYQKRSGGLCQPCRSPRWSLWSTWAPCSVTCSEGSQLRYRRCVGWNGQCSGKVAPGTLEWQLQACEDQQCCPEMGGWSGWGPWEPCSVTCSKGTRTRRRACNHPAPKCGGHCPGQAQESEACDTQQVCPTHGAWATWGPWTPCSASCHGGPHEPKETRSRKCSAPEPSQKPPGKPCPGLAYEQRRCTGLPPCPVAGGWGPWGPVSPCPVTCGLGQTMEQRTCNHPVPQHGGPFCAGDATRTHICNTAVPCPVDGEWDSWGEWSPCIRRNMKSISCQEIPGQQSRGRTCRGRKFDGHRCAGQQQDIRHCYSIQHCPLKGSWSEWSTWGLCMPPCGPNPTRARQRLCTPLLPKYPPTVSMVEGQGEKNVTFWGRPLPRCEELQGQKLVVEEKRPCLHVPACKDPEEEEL
Procedure: as §1
Different mixes of 50 ng of Properdin and 10 μg of peptides were incubated at room temperature for 2 hours with gentle shaking in EDTA-containing buffer. As a control, Properdin was incubated with the peptide's dilution buffer. Membrane-bound convertase was formed as in the C3bBb assay. During the convertase decay step, cells were incubated with the mix of FP and peptides. FP amount was chosen in order to obtain 50% of residual convertase after the decay. Residual convertase was measured and data were expressed as percentage of inhibition (percentage of residual convertase compared to the control without peptide).

[5] = target: T1, Properdin; assay: ELISA, biotinylated peptides coated, binding of Properdin
Procedure: To investigate whether Properdin binds the peptides biotinylated peptides was coated onto ELISA plates and increased among of Properdin were incubated before adding anti human Properdin.

[6] = test system: C3NeF (patient IgG); assay: Peptide inhibition assay with patients' IgG: reduction of C3NeF stabilization of the C3bBb convertase; assay type: biochemical, human; details: P1 IgG
[7] = target: T2, membrane bound C3bBb convertase (Homo sapiens, UniProt P00751+P01024); assay: C3b erythrocyte based C3bBb convertase stabilization / competition assay; assay type: biochemical
T2 construct: EAC3bBb generated by the incubation of EC3b with appropriate concentration of FB and FD; incubated in presence of FB (Complement Technology) and FD (Sigma) to form the alternative convertase C3bBb; purchased Complement Technology (FB); Sigma (FD); host or cells: sheep erythrocytes coated with C3b
T2 sequence (P01024 23-667 limits assumed): as the sequence (P01024 23-667 limits assumed, form in doubt, chain 1 of 3) above
T2 sequence (P01024 749-1663 limits assumed): as the sequence (P01024 749-1663 limits assumed, form in doubt, chain 2 of 3) above
T2 sequence (P00751 260-764 limits assumed): as the sequence (P00751 260-764 limits assumed, form in doubt, chain 3 of 3, further chain) above
Procedure: as §1
Membrane-bound convertase was formed as in the C3bBb assay. During the convertase decay step, cells were incubated with FP alone at a fixed dose (800 ng); 4 different doses of IgG alone and a mix of both IgG and FP at the same concentration. […]
[…] Residual convertase was measured and data were expressed as percentage of inhibition (percentage of residual convertase compared to the control without peptide).

[8] = target: Properdin like C3NeF (3 patients' Ig positive for the C3bBb and negative for the C3bBbP test, Example 2); assay: cell-based or functional assay
[9] = target: 3 C3NeF samples positive in both the C3bBb and the C3bBbP tests (Example 1); assay: cell-based or functional assay
[10] = target: 3 C3NeF samples positive for the C3bBb and negative for the C3bBbP test (Example 1); assay: cell-based or functional assay
[11] = target: Properdin (human, UniProt P27918 28-469); assay: cell-based or functional assay
Sequence of Properdin (human, UniProt P27918 28-469) (P27918 28-469 limits assumed): as the sequence (P27918 28-469) above

[12] = target: Properdin enhancer C3NeF (4 patients' Ig positive in both tests, Example 2); assay: cell-based or functional assay
[13] = in presence of Properdin_enhancer C3NeF
[14] = in presence of Properdin_like C3NeF

Sequence of C3bBbP Properdin-stabilized alternative pathway C3 convertase (P01024 23-1663 limits assumed, chain 1 of 3): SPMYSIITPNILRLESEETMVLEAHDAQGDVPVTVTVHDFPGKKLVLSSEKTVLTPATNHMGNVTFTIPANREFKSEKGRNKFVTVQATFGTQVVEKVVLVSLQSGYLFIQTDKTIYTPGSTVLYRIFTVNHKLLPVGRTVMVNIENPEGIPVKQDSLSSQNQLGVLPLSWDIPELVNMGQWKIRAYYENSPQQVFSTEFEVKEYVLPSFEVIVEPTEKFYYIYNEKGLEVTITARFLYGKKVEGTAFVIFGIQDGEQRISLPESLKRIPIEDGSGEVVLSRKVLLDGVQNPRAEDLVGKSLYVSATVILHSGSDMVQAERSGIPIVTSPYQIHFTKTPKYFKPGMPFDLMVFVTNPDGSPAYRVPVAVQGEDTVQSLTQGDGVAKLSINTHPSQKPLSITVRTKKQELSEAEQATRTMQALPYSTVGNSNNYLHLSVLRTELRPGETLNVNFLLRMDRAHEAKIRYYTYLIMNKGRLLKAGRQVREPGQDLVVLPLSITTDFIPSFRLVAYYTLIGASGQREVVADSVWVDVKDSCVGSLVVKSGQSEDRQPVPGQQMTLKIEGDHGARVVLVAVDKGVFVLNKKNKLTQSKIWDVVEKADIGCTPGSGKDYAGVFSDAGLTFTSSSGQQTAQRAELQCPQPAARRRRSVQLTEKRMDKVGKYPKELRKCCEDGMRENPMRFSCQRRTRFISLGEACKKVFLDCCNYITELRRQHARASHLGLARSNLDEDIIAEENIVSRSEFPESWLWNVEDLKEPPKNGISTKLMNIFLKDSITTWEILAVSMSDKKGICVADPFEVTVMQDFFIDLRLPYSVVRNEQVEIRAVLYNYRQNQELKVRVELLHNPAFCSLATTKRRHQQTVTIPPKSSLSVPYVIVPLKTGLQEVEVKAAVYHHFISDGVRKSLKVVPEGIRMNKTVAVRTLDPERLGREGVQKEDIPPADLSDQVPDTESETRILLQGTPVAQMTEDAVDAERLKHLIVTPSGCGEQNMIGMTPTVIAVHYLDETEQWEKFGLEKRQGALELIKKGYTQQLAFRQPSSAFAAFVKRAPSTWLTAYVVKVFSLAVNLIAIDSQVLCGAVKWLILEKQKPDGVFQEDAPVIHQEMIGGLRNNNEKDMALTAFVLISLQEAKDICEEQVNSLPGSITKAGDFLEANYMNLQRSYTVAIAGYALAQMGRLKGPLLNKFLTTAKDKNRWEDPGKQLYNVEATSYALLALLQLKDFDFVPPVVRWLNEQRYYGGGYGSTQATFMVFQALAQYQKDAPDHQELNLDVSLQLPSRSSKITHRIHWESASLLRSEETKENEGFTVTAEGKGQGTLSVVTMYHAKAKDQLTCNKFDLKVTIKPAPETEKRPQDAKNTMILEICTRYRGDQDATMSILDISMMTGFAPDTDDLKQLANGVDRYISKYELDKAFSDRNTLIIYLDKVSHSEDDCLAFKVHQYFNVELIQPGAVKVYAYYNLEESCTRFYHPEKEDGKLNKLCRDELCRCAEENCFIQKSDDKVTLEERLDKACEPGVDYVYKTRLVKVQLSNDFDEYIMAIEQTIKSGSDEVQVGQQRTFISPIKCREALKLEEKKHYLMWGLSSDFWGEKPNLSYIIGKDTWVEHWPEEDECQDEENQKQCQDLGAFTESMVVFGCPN
Sequence of C3bBbP Properdin-stabilized alternative pathway C3 convertase (P00751 260-764 limits assumed, chain 2 of 3, further chain): as the sequence (P00751 260-764 limits assumed, form in doubt, chain 3 of 3, further chain) above
Sequence of C3bBbP Properdin-stabilized alternative pathway C3 convertase (P27918 28-469 limits assumed, chain 3 of 3, further chain): as the sequence (P27918 28-469) above

**Q.** With “control IgG from healthy donors (antibody)” as the molecule, how does the IgG binding, residual (RU) [1] read?
**A.** 13 RU

**Q.** What about the IgG binding, residual (RU) [2] of the same molecule?
**A.** 1 RU

**Q.** Which “stabilization of the Convertase diminished” value ([3]; Example 2, Properdin enhancer C3NeF (4 patients' Ig positive in both tests), 80 μg peptide) does the source give for GAFTESMVVFLKHDEYNIE (Synthetic short1) here?
**A.** 40-80%

**Q.** And the “percentage of inhibition vs control” value [3, 13]?
**A.** significantly higher

**Q.** And the “percentage of inhibition vs control” value [3, 14]?
**A.** No significant difference

**Q.** What does the source list for “SMVVFLKHDEYNIENLQKTVWD (Synthetic pep1BbExt) [22 aminoacids comprising 5 aa on C3b and 17 from FB]”?
**A.** percentage of inhibition vs control [3, 13]: No significant difference; percentage of inhibition vs control [3, 14]: significantly higher; dose dependence of inhibition of Properdin stabilization [4]: dose-dependent; capacity of peptides to bind Properdin [5]: binds

**Q.** What does the source list for “GENQKQCQDLGAFTESMVVFLKHDE (Synthetic pep1C3bExt)”?
**A.** percentage of inhibition vs control [3, 13]: No significant difference; percentage of inhibition vs control [3, 14]: significantly higher; % inhibition of the Properdin stabilization capacity [4]: no effect

**Q.** Which results are given for “G-QDEENQKQCQDLGAFTESMVVFNIENLQKTVWD (GQDEENQKQCQDLGAFTESMVVFNIENLQKTVWD; N-terminal G; Synthetic pep1) [peptide 1, 22 residues of C3b (1616-1637) and 11 residues of Bb (308-318)]”?
**A.** decrease of % stabilization of P1 IgG [3]: 40%; C3NeF stabilization diminished ([3]; 3 C3NeF samples positive for the C3bBb and negative for the C3bBbP test): 20-40%; C3NeF stabilization diminished ([3]; 3 C3NeF samples positive in both tests): 20-70%; percentage of inhibition vs control [3, 13]: No significant difference; percentage of inhibition vs control [3, 14]: significantly higher; dose dependence of inhibition of IgG stabilization [6]: dose dependent; dose dependence of inhibition of Properdin stabilization [4]: dose-dependent; capacity of peptides to bind Properdin [5]: binds

**Q.** With “G-EERLDKACENNDSIGASNFTG (GEERLDKACENNDSIGASNFTG; Synthetic pep3) [peptide 3, residues of C3b and Bb, left side of the C3 convertase]” as the molecule, how does the “decrease of % stabilization of P1 IgG” value [3] read?
**A.** remained in the same range

**Q.** What about the “% inhibition of the Properdin stabilization capacity” value [4] of the same molecule?
**A.** no effect

**Q.** How did the “residual C3bBb lytic site” value ([7]; 800 ng of Properdin) turn out when “Properdin: complement protein Properdin (Calbiochem), stabilizes the C3 convertase” was run?
**A.** 60%

**Q.** What about the “% of stabilization of C3 convertase” value ([7]; Properdin incubated with peptides' excipient) of the same molecule?
**A.** 40%

**Q.** How did the “decrease of % stabilization of P1 IgG” value [3] turn out when “G-EDEEPWEQITVV YPKIWV (GEDEEPWEQITVVYPKIWV; Synthetic pep2) [peptide 2, 3 parts of C3b and one part of the vWFA domain of Bb]” was run?
**A.** remained in the same range

**Q.** And the “% inhibition of the Properdin stabilization capacity” value [4]?
**A.** no effect

B1: Peptide 1 (peptide)
peptide: GQDEENQKQCQDLGAFTESMVVFNIENLQKTVWD
modifications: also: biotinylated when coated in ELISA
**Q.** Which results are given for B1?
**A.** stabilization diminished [8]: 20 to 40%; C3NeF stabilization diminished [9]: 20 to 70%; C3NeF stabilization diminished [10]: 20 to 40%; inhibition of the Properdin stabilization capacity [11]: 80%

B2: Pep1BbExt (peptide)
peptide: SMVVFLKHDEYNIENLQKTVWD
modifications: also: biotinylated when coated in ELISA
**Q.** Which results are given for B2?
**A.** stabilization diminished [8]: 20 to 40%; inhibition of the Properdin stabilization capacity [11]: 80%

B3: Pep1C3bExt (peptide)
peptide: GENQKQCQDLGAFTESMVVFLKHDE
**Q.** How did the stabilization diminished [8] turn out when B3 was run?
**A.** 20 to 40%

B4: short1 (peptide)
peptide: GAFTESMVVFLKHDEYNIE
**Q.** With B4 as the molecule, how does the stabilization diminished [12] read?
**A.** 40 to 80%
